Data taken from patent publication US20140087995A1 (published 2014).
Numbered stars: 1 amine (or outer) side, 2 acyl side, 3 side chain; on linkers, the order of the positions; unused ones are H or OH. Bridge positions count the residues as written; N and C are the ends. Side chains are listed from the residue outwards. Ends that are not written are not given here. * marks the point of attachment. C20 diacid = O=C(O)CCCCCCCCCCCCCCCCCCC(=O)*; γGlu = O=C(O)[C@H](CCC(=O)[*:2])N[*:1]; AEEA = NCCOCCOCC(=O)O

T1: human calcitonin receptor (human, UniProt P30988 25-474)
T1 construct: whole, on cells; Assayed as cell membranes of BHK tk'ts 13 cells stably transfected with the human calcitonin receptor (Assay VII); also called hCTR; hCT
T1 sequence (looked up): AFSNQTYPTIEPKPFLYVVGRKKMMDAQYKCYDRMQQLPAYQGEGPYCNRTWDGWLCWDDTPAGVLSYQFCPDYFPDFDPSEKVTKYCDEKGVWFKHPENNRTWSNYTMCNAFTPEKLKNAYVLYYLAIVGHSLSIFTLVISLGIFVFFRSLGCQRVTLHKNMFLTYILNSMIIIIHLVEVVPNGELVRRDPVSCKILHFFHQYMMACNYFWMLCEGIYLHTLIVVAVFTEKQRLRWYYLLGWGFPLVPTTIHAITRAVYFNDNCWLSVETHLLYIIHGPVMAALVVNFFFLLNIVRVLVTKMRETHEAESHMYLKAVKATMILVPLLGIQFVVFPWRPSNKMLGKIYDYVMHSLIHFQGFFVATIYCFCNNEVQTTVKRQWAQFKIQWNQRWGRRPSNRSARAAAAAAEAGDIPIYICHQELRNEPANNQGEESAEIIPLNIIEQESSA


Tests used:
[1] = target: T1, human calcitonin receptor; assay: IC50 at hCTR divided by IC50 at hAmylin-R (SPA competition assays V and VII)
In short: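 Competition binding by SPA uses membrane preparations (35 ng/μL final) in pH 7.4 Hepes buffer with 1 mM CaCl2 and 5 mM MgCl₂. Incubation lasts 120 min at 25° C, and IC₅₀ comes from one-site fitting.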

[2] = target: T1, human calcitonin receptor; assay: SPA competition vs 125I-calcitonin, membranes of BHK cells with human calcitonin receptor (Assay VII)
In short: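 BHK hCTR membranes 35 ng/μL + SPA beads 0.05 mg/well; buffer 50 mM Hepes pH 7.4, 1 mM CaCl2, 5 mM MgCl₂, 0.1% OA, 0.02% Tween20. 120 min, 25° C., shaking. Scintillation count; IC50 by one-site binding competition.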

Row | Binder | Ratio hCT/hAmylin binding [1] | IC50 [2]
1 | K([γGlu-γGlu-C20 diacid])CNTATCATQRLAEFLRHSSPNFGAIPSSTNVGHNTY-NH2 (disulfide 2-7; N-terminus assumed; SMILES CC[C@H](C)[C@H](NC(=O)[C@H](C)NC(=O)CNC(=O)[C@H](Cc1ccccc1)NC(=O)[C@H](CC(N)=O)NC(=O)[C@@H]1CCCN1C(=O)[C@H](CO)NC(=O)[C@H](CO)NC(=O)[C@H](Cc1c[nH]cn1)NC(=O)[C@H](CCCNC(=N)N)NC(=O)[C@H](CC(C)C)NC(=O)[C@H](Cc1ccccc1)NC(=O)[C@H](CCC(=O)O)NC(=O)[C@H](C)NC(=O)[C@H](CC(C)C)NC(=O)[C@H](CCCNC(=N)N)NC(=O)[C@H](CCC(N)=O)NC(=O)[C@@H](NC(=O)[C@H](C)NC(=O)[C@@H]1CSSC[C@H](NC(=O)[C@@H](N)CCCCNC(=O)CC[C@H](NC(=O)CC[C@H](NC(=O)CCCCCCCCCCCCCCCCCCC(=O)O)C(=O)O)C(=O)O)C(=O)N[C@@H](CC(N)=O)C(=O)N[C@@H]([C@@H](C)O)C(=O)N[C@@H](C)C(=O)N[C@@H]([C@@H](C)O)C(=O)N1)[C@@H](C)O)C(=O)N1CCC[C@H]1C(=O)N[C@@H](CO)C(=O)N[C@@H](CO)C(=O)N[C@H](C(=O)N[C@@H](CC(N)=O)C(=O)N[C@H](C(=O)NCC(=O)N[C@@H](Cc1c[nH]cn1)C(=O)N[C@@H](CC(N)=O)C(=O)N[C@H](C(=O)N[C@@H](Cc1ccc(O)cc1)C(N)=O)[C@@H](C)O)C(C)C)[C@@H](C)O, also called compound 87) | 35.6 | 22.5 nM
2 | K([γGlu-C20 diacid])CNTATCATQRLAHFLRHSSPNFGAIPSSTNVGSNTY-NH2 (disulfide 2-7; N-terminus assumed; SMILES CC[C@H](C)[C@H](NC(=O)[C@H](C)NC(=O)CNC(=O)[C@H](Cc1ccccc1)NC(=O)[C@H](CC(N)=O)NC(=O)[C@@H]1CCCN1C(=O)[C@H](CO)NC(=O)[C@H](CO)NC(=O)[C@H](Cc1c[nH]cn1)NC(=O)[C@H](CCCNC(=N)N)NC(=O)[C@H](CC(C)C)NC(=O)[C@H](Cc1ccccc1)NC(=O)[C@H](Cc1c[nH]cn1)NC(=O)[C@H](C)NC(=O)[C@H](CC(C)C)NC(=O)[C@H](CCCNC(=N)N)NC(=O)[C@H](CCC(N)=O)NC(=O)[C@@H](NC(=O)[C@H](C)NC(=O)[C@@H]1CSSC[C@H](NC(=O)[C@@H](N)CCCCNC(=O)CC[C@H](NC(=O)CCCCCCCCCCCCCCCCCCC(=O)O)C(=O)O)C(=O)N[C@@H](CC(N)=O)C(=O)N[C@@H]([C@@H](C)O)C(=O)N[C@@H](C)C(=O)N[C@@H]([C@@H](C)O)C(=O)N1)[C@@H](C)O)C(=O)N1CCC[C@H]1C(=O)N[C@@H](CO)C(=O)N[C@@H](CO)C(=O)N[C@H](C(=O)N[C@@H](CC(N)=O)C(=O)N[C@H](C(=O)NCC(=O)N[C@@H](CO)C(=O)N[C@@H](CC(N)=O)C(=O)N[C@H](C(=O)N[C@@H](Cc1ccc(O)cc1)C(N)=O)[C@@H](C)O)C(C)C)[C@@H](C)O, also called compound 70) [N^ε1-[(4S)-4-carboxy-4-(19-carboxynonadecanoylamino)butanoyl]-[His14,Arg17,Pro21,Pro27]-h-amylin] | 60.8 | 10.3 nM
3 | K([γGlu-γGlu-C20 diacid])CNTATCATQRLAHFLRHSSPNFGAIPSSTNVGSNTY-NH2 (disulfide 2-7; N-terminus assumed; SMILES CC[C@H](C)[C@H](NC(=O)[C@H](C)NC(=O)CNC(=O)[C@H](Cc1ccccc1)NC(=O)[C@H](CC(N)=O)NC(=O)[C@@H]1CCCN1C(=O)[C@H](CO)NC(=O)[C@H](CO)NC(=O)[C@H](Cc1c[nH]cn1)NC(=O)[C@H](CCCNC(=N)N)NC(=O)[C@H](CC(C)C)NC(=O)[C@H](Cc1ccccc1)NC(=O)[C@H](Cc1c[nH]cn1)NC(=O)[C@H](C)NC(=O)[C@H](CC(C)C)NC(=O)[C@H](CCCNC(=N)N)NC(=O)[C@H](CCC(N)=O)NC(=O)[C@@H](NC(=O)[C@H](C)NC(=O)[C@@H]1CSSC[C@H](NC(=O)[C@@H](N)CCCCNC(=O)CC[C@H](NC(=O)CC[C@H](NC(=O)CCCCCCCCCCCCCCCCCCC(=O)O)C(=O)O)C(=O)O)C(=O)N[C@@H](CC(N)=O)C(=O)N[C@@H]([C@@H](C)O)C(=O)N[C@@H](C)C(=O)N[C@@H]([C@@H](C)O)C(=O)N1)[C@@H](C)O)C(=O)N1CCC[C@H]1C(=O)N[C@@H](CO)C(=O)N[C@@H](CO)C(=O)N[C@H](C(=O)N[C@@H](CC(N)=O)C(=O)N[C@H](C(=O)NCC(=O)N[C@@H](CO)C(=O)N[C@@H](CC(N)=O)C(=O)N[C@H](C(=O)N[C@@H](Cc1ccc(O)cc1)C(N)=O)[C@@H](C)O)C(C)C)[C@@H](C)O, also called compound 92) | 145 | 26 nM

Now those with a lower IC50 [2], led by results:

Row | Ratio hCT/hAmylin binding [1] | IC50 [2] | Binder
4 | 4.3 | 5.14 nM | KCNTATCATQRLADFLRHSSK([γGlu-γGlu-C20 diacid])NFGAIPSSTNVGSDTY-NH2 (disulfide 2-7; N-terminus assumed; SMILES CC[C@H](C)[C@H](NC(=O)[C@H](C)NC(=O)CNC(=O)[C@H](Cc1ccccc1)NC(=O)[C@H](CC(N)=O)NC(=O)[C@H](CCCCNC(=O)CC[C@H](NC(=O)CC[C@H](NC(=O)CCCCCCCCCCCCCCCCCCC(=O)O)C(=O)O)C(=O)O)NC(=O)[C@H](CO)NC(=O)[C@H](CO)NC(=O)[C@H](Cc1c[nH]cn1)NC(=O)[C@H](CCCNC(=N)N)NC(=O)[C@H](CC(C)C)NC(=O)[C@H](Cc1ccccc1)NC(=O)[C@H](CC(=O)O)NC(=O)[C@H](C)NC(=O)[C@H](CC(C)C)NC(=O)[C@H](CCCNC(=N)N)NC(=O)[C@H](CCC(N)=O)NC(=O)[C@@H](NC(=O)[C@H](C)NC(=O)[C@@H]1CSSC[C@H](NC(=O)[C@@H](N)CCCCN)C(=O)N[C@@H](CC(N)=O)C(=O)N[C@@H]([C@@H](C)O)C(=O)N[C@@H](C)C(=O)N[C@@H]([C@@H](C)O)C(=O)N1)[C@@H](C)O)C(=O)N1CCC[C@H]1C(=O)N[C@@H](CO)C(=O)N[C@@H](CO)C(=O)N[C@H](C(=O)N[C@@H](CC(N)=O)C(=O)N[C@H](C(=O)NCC(=O)N[C@@H](CO)C(=O)N[C@@H](CC(=O)O)C(=O)N[C@H](C(=O)N[C@@H](Cc1ccc(O)cc1)C(N)=O)[C@@H](C)O)C(C)C)[C@@H](C)O, also called compound 59)
5 | 42.2 | 2.57 nM | K([AEEA-C20 diacid])CNTATCATQRLAHFLRHSSPNFGAIPSSTNVGSNTY-NH2 (disulfide 2-7; N-terminus assumed; SMILES CC[C@H](C)[C@H](NC(=O)[C@H](C)NC(=O)CNC(=O)[C@H](Cc1ccccc1)NC(=O)[C@H](CC(N)=O)NC(=O)[C@@H]1CCCN1C(=O)[C@H](CO)NC(=O)[C@H](CO)NC(=O)[C@H](Cc1c[nH]cn1)NC(=O)[C@H](CCCNC(=N)N)NC(=O)[C@H](CC(C)C)NC(=O)[C@H](Cc1ccccc1)NC(=O)[C@H](Cc1c[nH]cn1)NC(=O)[C@H](C)NC(=O)[C@H](CC(C)C)NC(=O)[C@H](CCCNC(=N)N)NC(=O)[C@H](CCC(N)=O)NC(=O)[C@@H](NC(=O)[C@H](C)NC(=O)[C@@H]1CSSC[C@H](NC(=O)[C@@H](N)CCCCNC(=O)COCCOCCNC(=O)CCCCCCCCCCCCCCCCCCC(=O)O)C(=O)N[C@@H](CC(N)=O)C(=O)N[C@@H]([C@@H](C)O)C(=O)N[C@@H](C)C(=O)N[C@@H]([C@@H](C)O)C(=O)N1)[C@@H](C)O)C(=O)N1CCC[C@H]1C(=O)N[C@@H](CO)C(=O)N[C@@H](CO)C(=O)N[C@H](C(=O)N[C@@H](CC(N)=O)C(=O)N[C@H](C(=O)NCC(=O)N[C@@H](CO)C(=O)N[C@@H](CC(N)=O)C(=O)N[C@H](C(=O)N[C@@H](Cc1ccc(O)cc1)C(N)=O)[C@@H](C)O)C(C)C)[C@@H](C)O, also called compound 90) [N^ε1-[2-[2-[2-(19-carboxynonadecanoylamino)ethoxy]ethoxy]acetyl]-[His14,Arg17,Pro21,Pro27]-h-amylin]
